Data set [1] addresses T1, XMRV reverse transcriptase (full-length, monomeric) (Xenotropic murine leukaemia …, UniProt A1Z651 658-1328). Description: SAXS.
For data set [2], the target named is T1, XMRV reverse transcriptase …. Description: X-ray crystallography.
For data set [3] the target is unchanged. Description: SAXS. The source holds these as a separate data set.

B1: PPT-19 (DNA:RNA)
RNA: UAGUCUCCAGAAAAAGGGGGGAAUG
DNA: ATTCCCCCCTTTTTCTGGAGAC
For the molecule B1, the binding result in data set [1] was “binds”.

B2: hybrid 1 (DNA:RNA)
RNA: AACAGAGUGCGACACCUGAUUCCAU
DNA: TGGAATCAGGTGTCGCACTCTG
With B2, the binding result in data set [2] is on record as “binds”.

B3: PPT-18 (DNA:RNA)
RNA: AGUCUCCAGAAAAAGGGGGGAAUGA
DNA: CATTCCCCCCTTTTTCTGGAGA
As for B3, in data set [3], the binding result is listed as “binds”.

The values are drawn from publication PMC3616737.
